T1: hBCMA-hFc (human, UniProt Q02223 1-54, limits assumed)
T1 construct: not shown: human Fc (hFc)
T1 sequence (looked up): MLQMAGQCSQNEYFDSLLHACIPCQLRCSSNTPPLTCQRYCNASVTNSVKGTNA


Target: T1, hBCMA-hFc
Assay: Fortebio Octet K2 / Nicoya OpenSPR, hBCMA-hFc loaded on sensor, scFv in solution

Row | Binder | Kd [nM] | koff [s⁻¹] | kon [M⁻¹ s⁻¹]
1 | ScFv2 (scFv, also called 人源化ScFv2; 靶向BCMA人源化单克隆抗体) scFv: DIVLTQSPASLAVSLGQRATITCRASESVSIHGTHLMHWYQQKPGQPPVLVIYAASNLESGVPARFSGSGSGTDFTLKIHPVEAEDVGVYYCQQSIEDPRTFGGGTKLEIKGSTSGSGKPGSGEGSTKGQVQLVQSGPEVKKPGASVKVSCKASGYTFTDYYMNWVRQMHGKGLEWMGVINPYNGGTDYNQKFKGRVTITADKSTSTAYMELSSLRSEDTAVYYCARSVYDYPFDYWGQGTLVTVSS | 16.4 | 0.00437 | 266000
2 | ScFv1 (scFv, The scFv is VL-Linker-VH, expressed in CHO cells and purified; Any tag on the purified protein is not described for ScFv1; also called 靶向BCMA人源化单克隆抗体; 抗BCMA的人源化单链抗体) scFv: DIVMTQSPDSLAVSLGERATINCRASESVSIHGTHLMHWYQQLPGTPPKLLIYAASNLESGVPDRFSGSGSGTDFTLKISPVEAEDVGVYYCQQSIEDPRTFGGGTKLEIKGSTSGSGKPGSGEGSTKGQVQLVQSGPALVKPGASVKVSCKASGYTFTDYYMNWVRQAHGQGLEWMGVINPYNGGTDYNQKFKGRVTMTRDTSISTAYMELSSLRSEDTAVYYCARSVYDYPFDYWGQGTLVTVSS | 4.65 | 0.000438 | 94200

— patent publication CN111944047A (CHONGQING PREC BIOTECH CO LTD, dated 2020)
